The target in assay [1] is Aplysia californica acetylcholine-binding protein (Aplysia californica). Put plainly: radioligand binding.
For assay [2], the target named is ligand-binding domain of the human nAChR α9 subunit, de-glycosylated, His-tagged (human) (UniProt Q9UGM1). Put plainly: […] (20 mM Tris-HCl pH 8.0, 1 mg/mL BSA); […].

As a reminder, the IC50 is the concentration needed to halve the response being measured. With “αO-conotoxin GeXIVA, ribbon isomer (peptide)”, the IC50 in assay [1] was 2.9 µM.

Turning to “α-conotoxin RgIA, globular isomer (from UniProt P0C1D0 20-32) (peptide)”, the figures for the IC50 in assay [1] and in assay [2] were 0.194 µM and above 60 µM, respectively.

With “αO-conotoxin GeXIVA, beads isomer (peptide)”, the IC50 in assay [1] was found to be 2.9 µM; in assay [2], 1.63 µM.

On to “α-conotoxin RgIA, ribbon isomer (from UniProt P0C1D0 20-32) (peptide)”, for which the IC50 in assay [1] was 1 µM.

As for “αO-conotoxin GeXIVA, globular isomer (peptide)”, the IC50 in assay [1] was determined as 2.9 µM.
